T1: human TREM2 (human) (UniProt Q9NZC2)
T1 sequence (looked up): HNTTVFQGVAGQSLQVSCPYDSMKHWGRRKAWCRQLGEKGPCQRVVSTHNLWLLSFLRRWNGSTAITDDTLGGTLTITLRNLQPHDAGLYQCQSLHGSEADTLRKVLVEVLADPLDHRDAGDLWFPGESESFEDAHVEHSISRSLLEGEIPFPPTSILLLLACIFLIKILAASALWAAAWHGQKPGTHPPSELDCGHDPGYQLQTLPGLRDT


What was measured:
human TREM2 (human) [1] = target: T1, human TREM2 (human); experiment: 1st screen, 110 nM Ab
human TREM2 (human) [2] = target: T1, human TREM2 (human); experiment: 2nd screen, 100 nM Ab

Binder	Binding Signal (fold over 6E7 parental antibody) (human TREM2 (human) [1]) [fold]	Binding Signal (fold over 6E7 parental antibody) (human TREM2 (human) [2]) [fold]
6E7 variant V31 (antibody, V domains shown) VH: EVQLVQSGAEVKKPGESLKISCKGSGYSFTSYWIAWVRQMPGKGLEWMGIIYPGDSETRYSPSFQGQVTISADKSISTAYLQWSSLKASDTAMYFCARQRTFYYDSSDYFDYWGQGTLVTVSS VL: DIQMTQSPSSVSASVGDRVTITCRASQGISSWLAWYQQKPGKAPKLLIYAASSLQNGVPSRFSGSGSGTDFTLTISSLQPEDFATYFCQQADSFPRTFGQGTKLEIK	0.61	0.73
6E7 variant V93 (antibody, V domains shown) VH: EVQLVQSGAEVKKPGESLKISCKGSGYSFTSYWIAWVRQMPGKGLEWMGIIYPGDSDTRYSPSFQGQVTISADKSISTAYLQWSSLKASDTAMYFCARQRTFYYDSSDYFDYWGQGTLVTVSS VL: DIQMTQSPSSVSASVGDRVTITCRASQGISGWLAWYQQKPGKAPKLLIYAASSLQNGVPSRFSGSGSGTDFTLTISSLQPEDFATYFCQQADSFPRTFGQGTKLEIK	0.35	1.05
6E7 variant V22 (antibody, V domains shown) VH: EVQLVQSGAEVKKPGESLKISCKGSGYSFTSYWIAWVRQMPGKGLEWMGIIYPGDSDTRYSPSFQGQVTISADKSISTAYLQWSSLKASDTAMYFCARQRTFYYDSSDYFDYWGQGTLVTVSS VL: DIQMTQSPSSVSASVGDRVTITCRASQGISSWLAWYQQKPGKAPKLLIYRASSLQNGVPSRFSGSGSGTDFTLTISSLQPEDFATYFCQQADSFPRTFGQGTKLEIK	0.3	0.71
6E7 variant V21 (antibody, V domains shown) VH: EVQLVQSGAEVKKPGESLKISCKGSGYSFTSYWIAWVRQMPGKGLEWMGIIYPGDSDTRYSPSFQGQVTISADKSISTAYLQWSSLKASDTAMYFCARQRTFYYDSSDFFDYWGQGTLVTVSS VL: DIQMTQSPSSVSASVGDRVTITCRASQGISSWLAWYQQKPGKAPKLLIYAASSLQNGVPSRFSGSGSGTDFTLTISSLQPEDFATYFCQQADSFPRTFGQGTKLEIK	0.76	0.68
6E7 variant V92 (antibody, V domains shown) VH: EVQLVQSGAEVKKPGESLKISCKGSGYSFTSYWIAWVRQMPGKGLEWMGIIYPGDSDTRYSPSFQGQVTISADKSISTAYLQWSSLKASDTAMYFCARQRTFHYDSSDYFDYWGQGTLVTVSS VL: DIQMTQSPSSVSASVGDRVTITCRASQGISSWLAWYQQKPGKAPKLLIYAASSLQNGVPSRFSGSGSGTDFTLTISSLQPEDFATYFCQQADSFPRTFGQGTKLEIK	0.22	0.65
6E7 variant V20 (antibody, V domains shown) VH: EVQLVQSGAEVKKPGESLKISCKGSGYSFTSYWIAWVRQMPGKGLEWMGRIYPGDSDTRYSPSFQGQVTISADKSISTAYLQWSSLKASDTAMYFCARQRTFYYDSSDYFDYWGQGTLVTVSS VL: DIQMTQSPSSVSASVGDRVTITCRASQGISSWLAWYQQKPGKAPKLLIYAASSLQNGVPSRFSGSGSGTDFTLTISSLQPEDFATYFCQQADSFPRTFGQGTKLEIK	0.18	0.52
6E7 variant V9 (antibody, V domains shown) VH: EVQLVQSGAEVKKPGESLKISCKGSGYSFTSYWIAWVRQMPGKGLEWMGIIYPGDSDTRYSPSFQGQVTISADKSISTAYLQWSSLKASDTAMYFCARQRGFYYDSSDYFDYWGQGTLVTVSS VL: DIQMTQSPSSVSASVGDRVTITCRASQGISSWLAWYQQKPGKAPKLLIYAASSLQNGVPSRFSGSGSGTDFTLTISSLQPEDFATYFCQQADSFPRTFGQGTKLEIK	0.67	0.54
6E7 variant V19 (antibody, V domains shown) VH: EVQLVQSGAEVKKPGESLKISCKGSGYSFTSSWIAWVRQMPGKGLEWMGIIYPGDSDTRYSPSFQGQVTISADKSISTAYLQWSSLKASDTAMYFCARQRTFYYDSSDYFDYWGQGTLVTVSS VL: DIQMTQSPSSVSASVGDRVTITCRASQGISSWLAWYQQKPGKAPKLLIYAASSLQNGVPSRFSGSGSGTDFTLTISSLQPEDFATYFCQQADSFPRTFGQGTKLEIK	0.59	0.48
6E7 variant V10 (antibody, V domains shown) VH: EVQLVQSGAEVKKPGESLKISCKGSGYSFTSYWIAWVRQMPGKGLEWMGIIYPGDSDTRYSPSFQGQVTISADKSISTAYLQWSSLKASDTAMYFCARQRTFYYDSSDYFDYWGQGTLVTVSS VL: DIQMTQSPSSVSASVGDRVTITCRASQGISSWLAWYQQKPGKAPKLLIYSASSLQNGVPSRFSGSGSGTDFTLTISSLQPEDFATYFCQQADSFPRTFGQGTKLEIK	0.76	0.7

Continued, values first:

Binding Signal (fold over 6E7 parental antibody) (human TREM2 (human) [1]) [fold]	Binding Signal (fold over 6E7 parental antibody) (human TREM2 (human) [2]) [fold]	Binder
0.33	0.36	6E7 variant V90 (antibody, V domains shown) VH: EVQLVQSGAEVKKPGESLKISCKGSGYSFTSEWIAWVRQMPGKGLEWMGIIYPGDSDTRYSPSFQGQVTISADKSISTAYLQWSSLKASDTAMYFCARQRTFYYDSSDYFDYWGQGTLVTVSS VL: DIQMTQSPSSVSASVGDRVTITCRASQGISRWLAWYQQKPGKAPKLLIYAASSLQNGVPSRFSGSGSGTDFTLTISSLQPEDFATYFCQQADSFPRTFGQGTKLEIK
0.11	0.32	6E7 variant V7 (antibody, V domains shown) VH: EVQLVQSGAEVKKPGESLKISCKGSGYSFTSEWIAWVRQMPGKGLEWMGIIYPGDSDTRYSPSFQGQVTISADKSISTAYLQWSSLKASDTAMYFCARQRTFYYDSSDYFDYWGQGTLVTVSS VL: DIQMTQSPSSVSASVGDRVTITCRASQGISSWLAWYQQKPGKAPKLLIYAASSLQNGVPSRFSGSGSGTDFTLTISSLQPEDFATYFCQQADSFPRTFGQGTKLEIK
0.31	0.87	6E7 variant V94 (antibody, V domains shown) VH: EVQLVQSGAEVKKPGESLKISCKGSGYSFTSYWIAWVRQMPGKGLEWMGIIYPGDSDTRYSPSFQGQVTISADKSISTAYLQWSSLKASDTAMYFCARQRTFYYDSSDYFDYWGQGTLVTVSS VL: DIQMTQSPSSVSASVGDRVTITCRASQGISSWLAWYQQKPGKAPKLLIYAAASLQNGVPSRFSGSGSGTDFTLTISSLQPEDFATYFCQQADSFPRTFGQGTKLEIK
0.2	0.56	6E7 variant V6 (antibody, V domains shown) VH: EVQLVQSGAEVKKPGESLKISCKGSGYSFTSMWIAWVRQMPGKGLEWMGIIYPGDSDTRYSPSFQGQVTISADKSISTAYLQWSSLKASDTAMYFCARQRTFYYDSSDYFDYWGQGTLVTVSS VL: DIQMTQSPSSVSASVGDRVTITCRASQGISSWLAWYQQKPGKAPKLLIYAASSLQNGVPSRFSGSGSGTDFTLTISSLQPEDFATYFCQQADSFPRTFGQGTKLEIK
0.79	0.72	6E7 variant V30 (antibody, V domains shown) VH: EVQLVQSGAEVKKPGESLKISCKGSGSSFTSYWIAWVRQMPGKGLEWMGIIYPGDSDTRYSPSFQGQVTISADKSISTAYLQWSSLKASDTAMYFCARQRTFYYDSSDYFDYWGQGTLVTVSS VL: DIQMTQSPSSVSASVGDRVTITCRASQGISSWLAWYQQKPGKAPKLLIYAASSLQNGVPSRFSGSGSGTDFTLTISSLQPEDFATYFCQQADSFPRTFGQGTKLEIK
0.28	0.77	6E7 variant V8 (antibody, V domains shown) VH: EVQLVQSGAEVKKPGESLKISCKGSGYSFTSYWIAWVRQMPGKGLEWMGIIYPGDSDTKYSPSFQGQVTISADKSISTAYLQWSSLKASDTAMYFCARQRTFYYDSSDYFDYWGQGTLVTVSS VL: DIQMTQSPSSVSASVGDRVTITCRASQGISSWLAWYQQKPGKAPKLLIYAASSLQNGVPSRFSGSGSGTDFTLTISSLQPEDFATYFCQQADSFPRTFGQGTKLEIK
0.17	0.42	6E7 variant V18 (antibody, V domains shown) VH: EVQLVQSGAEVKKPGESLKISCKGSGYSFTSYHIAWVRQMPGKGLEWMGIIYPGDSDTRYSPSFQGQVTISADKSISTAYLQWSSLKASDTAMYFCARQRTFYYDSSDYFDYWGQGTLVTVSS VL: DIQMTQSPSSVSASVGDRVTITCRASQGISSWLAWYQQKPGKAPKLLIYAASSLQNGVPSRFSGSGSGTDFTLTISSLQPEDFATYFCQQADSFPRTFGQGTKLEIK
0.4	0.4	6E7 variant V23 (antibody, V domains shown) VH: EVQLVQSGAEVKKPGESLKISCKGSGYSFTSYWIAWVRQMPGKGLEWMGIIYPGDSDTRYSPSFQGQVTISADKSISTAYLQWSSLKASDTAMYFCARQRTFYYDSSDYFDYWGQGTLVTVSS VL: DIQMTQSPSSVSASVGDRVTITCRASQGISSWLAWYQQKPGKAPKLLIYAASSLQNGVPSRFSGSGSGTDFTLTISSLQPEDFATYFCQQADSFPLTFGQGTKLEIK
0.79	0.42	6E7 variant V11 (antibody, V domains shown) VH: EVQLVQSGAEVKKPGESLKISCKGSGYSFTSYWIAWVRQMPGKGLEWMGIIYPGDSDTRYSPSFQGQVTISADKSISTAYLQWSSLKASDTAMYFCARQRTFYYDSSDYFDYWGQGTLVTVSS VL: DIQMTQSPSSVSASVGDRVTITCRASQGISSWLAWYQQKPGKAPKLLIYAASSLQNGVPSRFSGSGSGTDFTLTISSLQPEDFATYFCQQAASFPRTFGQGTKLEIK
0.25	0.61	6E7 variant V91 (antibody, V domains shown) VH: EVQLVQSGAEVKKPGESLKISCKGSGYSFTSYWIAWVRQMPGKGLEWMGIIYPDDSDTRYSPSFQGQVTISADKSISTAYLQWSSLKASDTAMYFCARQRTFYYDSSDYFDYWGQGTLVTVSS VL: DIQMTQSPSSVSASVGDRVTITCRASQGISSWLAWYQQKPGKAPKLLIYAASSLQNGVPSRFSGSGSGTDFTLTISSLQPEDFATYFCQQADSFPRTFGQGTKLEIK
